The record followed here is article PMC7769003.

Usually Kd stands for the equilibrium constant for the complex coming apart.

This test concerns the target Recombinant VEEV p62-E1 protein (TrD strain) (Venezuelan equine encephalitis virus (TrD strain)). The test can be described thus: SPR. For orientation: Surface plasmon resonance follows binding to a sensor surface in real time, without labels.

“HRV-cleaved monovalent Ldlrad3-D1 (from UniProt A2AR95 18-70) (domain or fragment)”: the Kd was 209 nM.
